# Source: patent publication US20160090402A1 (BIOMERIEUX, published 2016)
# Tests used:
# [1] = target: T1, hASCT2 receptor (human type 2 sodium-dependent neutral amino acid transporter) (human, UniProt Q15758 1-541); assay: flow cytometry on XChASCT2 cells and on TE671 and TE671galv cells, anti-RGS-His detection
# T1 construct: whole, on cells
# T1 sequence: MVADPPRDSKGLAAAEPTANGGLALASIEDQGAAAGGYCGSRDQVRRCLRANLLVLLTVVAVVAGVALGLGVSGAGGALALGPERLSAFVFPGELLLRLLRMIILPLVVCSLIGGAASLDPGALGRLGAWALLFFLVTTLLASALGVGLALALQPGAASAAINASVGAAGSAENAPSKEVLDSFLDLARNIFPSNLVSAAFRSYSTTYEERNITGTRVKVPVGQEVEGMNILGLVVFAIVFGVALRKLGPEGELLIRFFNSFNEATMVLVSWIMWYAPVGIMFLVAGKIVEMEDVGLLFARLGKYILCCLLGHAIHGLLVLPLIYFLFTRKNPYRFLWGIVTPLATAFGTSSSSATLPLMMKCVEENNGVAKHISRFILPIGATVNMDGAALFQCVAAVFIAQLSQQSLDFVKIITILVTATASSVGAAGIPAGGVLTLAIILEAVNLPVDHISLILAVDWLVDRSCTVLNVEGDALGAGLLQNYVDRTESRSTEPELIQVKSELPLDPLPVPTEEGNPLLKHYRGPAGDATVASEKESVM
# hASCT1 receptor = target: T2, hASCT1 receptor (human, UniProt P43007 1-532); assay: flow cytometry on XChASCT1 cells, anti-RGS-His detection
# T2 construct: whole, on cells
# T2 sequence: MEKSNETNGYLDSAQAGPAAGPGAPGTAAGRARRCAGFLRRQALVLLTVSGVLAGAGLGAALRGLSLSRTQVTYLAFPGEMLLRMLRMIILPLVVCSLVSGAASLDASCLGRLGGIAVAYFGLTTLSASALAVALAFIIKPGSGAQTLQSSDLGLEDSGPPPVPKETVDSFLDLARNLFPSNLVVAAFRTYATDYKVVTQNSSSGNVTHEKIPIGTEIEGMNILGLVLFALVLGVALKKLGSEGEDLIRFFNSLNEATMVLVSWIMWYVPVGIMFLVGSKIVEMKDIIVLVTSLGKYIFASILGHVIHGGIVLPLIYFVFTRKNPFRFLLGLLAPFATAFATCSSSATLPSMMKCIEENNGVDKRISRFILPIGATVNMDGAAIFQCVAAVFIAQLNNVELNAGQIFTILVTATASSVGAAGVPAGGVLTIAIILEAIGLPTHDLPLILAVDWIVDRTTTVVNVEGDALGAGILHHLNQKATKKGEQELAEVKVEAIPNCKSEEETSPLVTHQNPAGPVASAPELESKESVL
# [2] = target: T1, hASCT2 receptor (human type 2 …); assay: flow cytometry on XChASCT2 cells, anti-RGS-His detection
binder,measurement,setting,value
"soluble recombinant SU subunit of the HERV-W envelope (EnvSU, 1-317) (ligand, range 21-317; Used as filtered HEK293T supernatant; also called soluble SU; SU subunit (1-317)) APPPCRCMTSSSPYQEFLWRMQRPGNIDAPSYRSLSKGTPTFTAHTHMPRNCYHSATLCMHANTHYWTGKMINPSCPGGLGVTVCWTYFTQTGMSDGGGVQDQAREKHVKEVISQLTRVHGTSSPYKGLDLSKLHETLRTHTRLVSLFNTTLTGLHEVSAQNPTNCWICLPLNFRPYVSIPVPEQWNNFSTEINTTSVLVGPLVSNLEITHTSNLTCVKFSNTTYTTNSQCIRWVTPPTQIVCLPSGIFFVCGTSAYRCLNGSSESMCFLSFLVPPMTIYTEQDLYSYVISKPAAARRGSHHHHHH",binding result,[1],binds
same,binding result,hASCT1 receptor,binds
"soluble recombinant envelope protein Env-Gp60 (Gp60, 1-435) (ligand, range 21-435; Used as filtered HEK293T supernatant; the construct is printed as 1-435; also called soluble envelope) not shown",binding result,[2],binds
